The source of these data is PMC7051184 (2020).

The test has as its target 6His-S-Importin β(1-876), full-length WT human importin β (human, UniProt Q14974 1-876). The test is described as follows: FRET; displacement of importin β-bound Rango.

Chain of 6His-S-Importin β(1-876), full-length WT human importin β (Q14974 whole entry): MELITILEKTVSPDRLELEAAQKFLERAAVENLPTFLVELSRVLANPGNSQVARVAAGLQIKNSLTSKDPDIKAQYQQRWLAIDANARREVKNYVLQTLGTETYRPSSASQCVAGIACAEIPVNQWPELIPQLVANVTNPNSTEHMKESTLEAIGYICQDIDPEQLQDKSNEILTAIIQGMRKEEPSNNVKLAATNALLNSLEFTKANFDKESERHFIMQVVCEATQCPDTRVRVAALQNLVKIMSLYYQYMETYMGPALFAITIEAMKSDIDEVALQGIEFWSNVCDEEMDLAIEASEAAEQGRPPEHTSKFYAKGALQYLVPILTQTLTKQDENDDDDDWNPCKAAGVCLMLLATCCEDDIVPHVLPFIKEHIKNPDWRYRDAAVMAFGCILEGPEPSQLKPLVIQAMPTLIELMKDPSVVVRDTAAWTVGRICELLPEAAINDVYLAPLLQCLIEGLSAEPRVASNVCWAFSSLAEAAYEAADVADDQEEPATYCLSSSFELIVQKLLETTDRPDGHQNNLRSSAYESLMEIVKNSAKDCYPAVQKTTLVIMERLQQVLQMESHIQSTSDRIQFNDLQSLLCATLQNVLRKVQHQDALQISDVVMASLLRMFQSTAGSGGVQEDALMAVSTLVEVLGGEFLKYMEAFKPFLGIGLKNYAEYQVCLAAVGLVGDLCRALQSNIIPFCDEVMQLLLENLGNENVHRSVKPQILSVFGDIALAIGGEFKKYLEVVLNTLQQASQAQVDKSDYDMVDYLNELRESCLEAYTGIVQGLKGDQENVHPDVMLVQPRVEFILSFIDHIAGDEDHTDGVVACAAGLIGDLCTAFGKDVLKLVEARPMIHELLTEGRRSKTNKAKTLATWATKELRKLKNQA

As a reminder, the Kd is the free concentration of one partner at which half of the binding sites on the other are occupied at equilibrium, for simple one-to-one binding. PRPRPRPRPRPRPRPRPRPRKC came in with a dissociation constant (Kd) of 8.2 nM.
